According to article PMC10681173:

Assays:
[1] = target: RMM BMC-H fused to GFP10 or GFP11 through the long linkers Lk30/27 (RMM-10/RMM-11, reference pair); assay: split reporter (BiFC, NanoBiT); tripartite GFP in E. coli BL21(DE3) cells; single vector, POI-10 and POI-11 on a bicistronic mRNA under T7p, GFP1-9 independent; IPTG 10 uM from the start, 37°C; Fmax relative to the RMM reference
[2] = target: SUMO-RMM fused to GFP10 or GFP11 through the long linkers Lk30/27 (SUMO-RMM-GFP10, SUMO-RMM-GFP11); assay: as above
[3] = target: RMM BMC-H fused to GFP10 or GFP11 through the long linkers Lk30/27 (RMM-10/RMM-11, reference pair); assay: split reporter (BiFC, NanoBiT); tripartite GFP in E. coli BL21(DE3) cells; single vector, all three partners on a single tricistronic mRNA; IPTG 10 uM from the start, 37°C
[4] = target: K26D/N29D/A53D RMM triple mutant fused to GFP10 or GFP11 (tm-RMM-10/11); assay: tripartite GFP (tGFP) reconstitution, in-cell fluorescence Fmax; conditions: data collected over 16 h, induction from the culture start, read off a plot
[5] = target: RMM BMC-H with GFP10 or GFP11 at the N-terminus (N-ter tagged RMM-10/11); assay: split reporter (BiFC, NanoBiT); tripartite GFP in E. coli BL21(DE3) cells; single vector, POI-10 and POI-11 on a bicistronic mRNA under T7p, GFP1-9 independent; IPTG 10 uM from the start, 37°C; Fmax relative to the RMM reference
SUMO-RMM-His6 = assay: SEC; size-exclusion HPLC of TALON-purified samples
[6] = target: K26D RMM single mutant fused to GFP10 or GFP11 (sm-RMM-10/11); assay: tripartite GFP (tGFP) reconstitution, in-cell fluorescence Fmax; conditions: data collected over 16 h, induction from the culture start, read off a plot
[7] = target: N29D/A53D RMM double mutant fused to GFP10 or GFP11 (dm-RMM-10/11); assay: as above; conditions: data collected over 16 h, induction from the culture start, read off a plot
His6-tagged RMM = assay: SEC; size-exclusion HPLC of TALON-purified samples
[8] = bicistron organization mode, parent: est. 103
[9] = independent-transcript organization mode, Lk30/27 linkers, parent: est. 100
[10] = tricistron organization mode, parent: est. 97

SUMO-RMM fused to GFP10 or GFP11 through the long linkers Lk30/27 (SUMO-RMM-GFP10, SUMO-RMM-GFP11)
Fmax as percent of the RMM pair reference [1]: 50 to 65%
Fmax as percent of the RMM pair reference [2]: 50 to 65%

RMM BMC-H fused to GFP10 or GFP11 through the long linkers Lk30/27 (RMM-10/RMM-11, reference pair) (natural protein)
ratio of RMM versus BWI signals [3]: 2 fold
ratio of RMM versus BWI signals [1]: 15 fold
Fmax as percent of the RMM pair reference [2]: 115%

RMM BMC-H fused to GFP10 or GFP11 through the long linkers Lk30/27 (RMM-10/RMM-11, reference pair) K26D; N29D; A53D
percent of parent [4, 8]: 39%
percent of parent [4, 9]: 41%
percent of parent [4, 10]: 40%

RMM BMC-H with GFP10 or GFP11 at the N-terminus (N-ter tagged RMM-10/11) (natural protein)
fold drop of fluorescence against C-ter tagged RMM [5]: 3 fold

SUMO-RMM-His6
stoichiometry N (SUMO-RMM-His6): 12

RMM BMC-H fused to GFP10 or GFP11 through the long linkers Lk30/27 (RMM-10/RMM-11, reference pair) K26D
percent of parent [6, 8]: 107%
percent of parent [6, 9]: 119%

RMM BMC-H fused to GFP10 or GFP11 through the long linkers Lk30/27 (RMM-10/RMM-11, reference pair) N29D; A53D
percent of parent [7, 8]: 102%
percent of parent [7, 9]: 124%
percent of parent [7, 10]: 108%

His6-tagged RMM (natural protein)
stoichiometry N (His6-tagged RMM): 6
